Data on 1 protein can be found in paper PMC4289141 (Journal of the American Chemical Society, 2013).

This series deals with the molecule itself. As to the kind of experiment: cross-linking.

B1: ^A74/C81/C96RIDC1 (natural protein)
chain: not shown
modifications: heme covalently (c-type) linked to the protein backbone; in the tetramer disulfide bonds between monomers
With B1, the “stoichiometry N” value worked out at 4.

As usually defined, the stoichiometry N is the number of molecules, sites or subunits per partner or assembly.
